B1: D. melanogaster Boca conserved core (dmBocaCC) (domain or fragment, Drosophila melanogaster)
chain: GSHMKKDIRDYSEADLERLLDQWEEDEEPLEDDELPEHLRPQPKLDLSNLDSKSPEDLLKVSKKGRTLMTFVSVTGNPTREESDTITKLWQTSLWNNHIQAERYMVDDNRAIFLFKDGTQAWDAKDFLIEQERCKGVTIENKEYPG
B2: M. musculus Mesd structured domain (mmMesdSD) (domain or fragment, Mus musculus)
chain: GSHMTKKGKTLMMFVTVSGNPTEKETEEITSLWQGSLFNANYDVQRFIVGSDRAIFMLRDGSYAWEIKDFLVSQDRCAEVTLEGQMYPG
B3: D. melanogaster Boca structured domain (dmBocaSD) (domain or fragment, Drosophila melanogaster)
chain: GSQKHMSKKGRTLMTFVSVTGNPTREESDTITKLWQTSLWNNHIQAERYMVDDNRAIFLFKDGTQAWDAKDFLIEQERCKGVTIENKEYPG
B4: Selenomethionyl D. melanogaster Boca structured domain (SeMet dmBocaSD) (domain or fragment, Drosophila melanogaster)
chain: GSQKHMSKKGRTLMTFVSVTGNPTREESDTITKLWQTSLWNNHIQAERYMVDDNRAIFLFKDGTQAWDAKDFLIEQERCKGVTIENKEYPG
modifications: selenomethionyl (SeMet) protein

How the values were obtained:
AUC = biological target: the molecule itself; assay: AUC
crystal structure = biological target: the molecule itself; assay: crystal structure

Protein	Kd (AUC)	binding result (crystal structure)
B1	155 ± 4.6 µM	
B2	276 ± 13.8 µM	
B3	77 ± 3.1 µM	
B4		binds
